Read-outs that look alike come from different tables or passages of the source.
T1: OS-9 ΔMRH (Homo sapiens, UniProt Q13438)
T1 chain: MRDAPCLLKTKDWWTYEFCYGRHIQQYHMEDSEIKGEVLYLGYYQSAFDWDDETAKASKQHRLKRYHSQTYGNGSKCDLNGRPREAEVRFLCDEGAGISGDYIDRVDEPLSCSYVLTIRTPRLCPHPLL

T2: OS-9 CTE (Homo sapiens, UniProt Q13438)
T2 chain: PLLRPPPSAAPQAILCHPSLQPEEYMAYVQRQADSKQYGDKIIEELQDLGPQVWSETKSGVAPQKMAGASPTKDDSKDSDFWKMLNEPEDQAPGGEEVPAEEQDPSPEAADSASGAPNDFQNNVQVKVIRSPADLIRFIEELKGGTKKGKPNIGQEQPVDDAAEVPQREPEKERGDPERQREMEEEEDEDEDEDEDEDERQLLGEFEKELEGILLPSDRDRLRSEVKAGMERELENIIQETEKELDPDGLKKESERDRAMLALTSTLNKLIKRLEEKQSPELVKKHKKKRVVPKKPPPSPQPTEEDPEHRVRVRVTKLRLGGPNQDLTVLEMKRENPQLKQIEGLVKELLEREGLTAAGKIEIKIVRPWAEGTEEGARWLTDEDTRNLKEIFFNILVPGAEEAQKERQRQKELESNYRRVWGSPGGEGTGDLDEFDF

B1: Grp94-C (601–754) (domain or fragment, canine, UniProt P41148 601-754, looked up)
chain: SEKTKESREAIEKEFEPLLNWMKDKALKDKIEKAVVSQRLTESPCALVASQYGWSGNMERIMKAQAYQTGKDISTNYYASQKKTFEINPRHPLIKDMLRRVKEDEDDKTVSDLAVVLFETATLRSGYLLPDTKAYGDRIERMLRLSLNIDPDAK
B2: OS-9 ΔMRH (267–666) (domain or fragment, rat, UniProt Q5RKH6 267-666, looked up)
chain: QHEEKVTEEVQDTDHQVWSGSKAAGAPPKKEDVSPTKEDKESEFWKMLQEPEEQATGTEEAQAGEQDLNHEAAADPAPAPPTDFQNNVQVKLIRSPADLIRLIEELKGAEKGKPSVRQEQPGDDTTEAPQREAEAKGKGGEPRGLVEEEDGDEEEEDEDEDEQQLLGEFEKELEGMLLPSDRERLRSEVKAGMERELENIIQETEKELDPEGLRKESEREQAILALTSTLDKLIKRLQESQSPELVQKYKKRRVVPQKPPPSPHPTEEEPEHRVRVRVTKLRHGGPNQDLTVLEMNRENPQLKQIEGLVTEVLEREGLTAEGKIEIKIVRPGAEGKEEDTRWLTDEDTRNLKEIFFNILVQGAEEANKERQRQSELESNYRRVWGSPGGEDTGDLDEFDF

Tests used:
Test in all cases: ITC
[1] = molecular target: B2
[2] = molecular target: T1, OS-9 ΔMRH
[3] = molecular target: T2, OS-9 CTE
[4] = molecular target: T3, His-Grp94-MC (337–765) (canine, UniProt P41148 337-765)
[5] = molecular target: T3, His-Grp94-MC (337–765); remark: listed apart in the source
[6] = molecular target: Grp94-M (337–594) (canine, UniProt P41148 337-594)
[7] = molecular target: B1

| Binder | Kd [1] [µM] | dH [1] [kcal/mol] | stoichiometry N [1] | Kd [2] [µM] | Kd [3] [µM] | further results |
| --- | --- | --- | --- | --- | --- | --- |
| Grp94 M domain (protein) NDIKPIWQRPSKEVEDDEYKAFYKSFSKESDDPMAYIHFTAEGEVTFKSILFVPTSAPRGLFDEYGSKKSDYIKLYVRRVFITDDFHDMMPKYLNFVKGVVDSDDLPLNVSRETLQQHKLLKVIRKKLVRKTLDMIKKIADEKYNDTFWKEFGTNIKLGVIEDHSNRTRLAKLLRFQSSHHPSDITSLDQYVERMKEKQDKIYFMAGSSRKEAESSPFVERLLKKGYEVIYLTEPVDEYCIQALPEFDGKRFQNVAKE | 25.4 ± 2.6 | -3.3 ± 0.1 | 2.8 ratio of Grp94 monomer to the OS-9 hexamer | 25 | 14 | – |
| Grp94 MC domains (protein) NDIKPIWQRPSKEVEDDEYKAFYKSFSKESDDPMAYIHFTAEGEVTFKSILFVPTSAPRGLFDEYGSKKSDYIKLYVRRVFITDDFHDMMPKYLNFVKGVVDSDDLPLNVSRETLQQHKLLKVIRKKLVRKTLDMIKKIADEKYNDTFWKEFGTNIKLGVIEDHSNRTRLAKLLRFQSSHHPSDITSLDQYVERMKEKQDKIYFMAGSSRKEAESSPFVERLLKKGYEVIYLTEPVDEYCIQALPEFDGKRFQNVAKEGVKFDESEKTKESREAIEKEFEPLLNWMKDKALKDKIEKAVVSQRLTESPCALVASQYGWSGNMERIMKAQAYQTGKDISTNYYASQKKTFEINPRHPLIKDMLRRVKEDEDDKTVSDLAVVLFETATLRSGYLLPDTKAYGDRIERMLRLSLNIDPDAKVEEEPEEEPEE | – | -7.2 ± 2.3 | 0.15 ratio of Grp94 dimer to the OS-9 hexamer | – | 22 | – |
| Grp94 C domain (protein) EGVKFDESEKTKESREAIEKEFEPLLNWMKDKALKDKIEKAVVSQRLTESPCALVASQYGWSGNMERIMKAQAYQTGKDISTNYYASQKKTFEINPRHPLIKDMLRRVKEDEDDKTVSDLAVVLFETATLRSGYLLPDTKAYGDRIERMLRLSLNIDPDAKVEEEPEEEPEE | – | – | – | 24 | – | – |
| B1 | 24.6 ± 1.7 | -14 ± 0.7 | 1 ratio of Grp94 dimer to the OS-9 hexamer | – | – | – |
| B2 | – | – | – | – | – | Kd [4]: 8.4 ± 2.3 µM |
| OS-9 CTE (589–666) (domain or fragment, rat, UniProt Q5RKH6 589-666, looked up) KIEIKIVRPGAEGKEEDTRWLTDEDTRNLKEIFFNILVQGAEEANKERQRQSELESNYRRVWGSPGGEDTGDLDEFDF | – | – | – | – | – | Kd [5]: 22.4 ± 2 µM; dH [5]: -11.6 ± 1 kcal/mol; stoichiometry N [5]: 2.7 ratio of Grp94 dimer to the OS-9 hexamer; Kd [6]: 14.3 ± 2.1 µM; dH [6]: -9.1 ± 1 kcal/mol; stoichiometry N [6]: 3.4 ratio of Grp94 monomer to the OS-9 hexamer; Kd [7]: 15 ± 1.1 µM; dH [7]: -33 ± 1.7 kcal/mol; stoichiometry N [7]: 2.9 ratio of Grp94 dimer to the OS-9 hexamer |

Source: article PMC4188734 (Journal of molecular biology, 2014)
